How the values were obtained:
[1] = target: T1, CD3 on Jurkat (CD3+) cells (Homo sapiens (Human), UniProt P07766 23-207; P04234 22-171; P09693 23-182); assay: flow cytometry on Jurkat (CD3+) cells
T1 construct: also called Jurkat T cells

[2] = target: T2, PSMA on the surface of LnCap cells (human, UniProt Q04609 1-750); assay: flow cytometry on LnCap (PSMA+) cells
T2 construct: whole, on cells; also called LnCap (PSMA+) cells

[3] = target: T2, PSMA on the surface of LnCap cells; assay: cell-based or functional assay

T2 sequence (Q04609 whole entry): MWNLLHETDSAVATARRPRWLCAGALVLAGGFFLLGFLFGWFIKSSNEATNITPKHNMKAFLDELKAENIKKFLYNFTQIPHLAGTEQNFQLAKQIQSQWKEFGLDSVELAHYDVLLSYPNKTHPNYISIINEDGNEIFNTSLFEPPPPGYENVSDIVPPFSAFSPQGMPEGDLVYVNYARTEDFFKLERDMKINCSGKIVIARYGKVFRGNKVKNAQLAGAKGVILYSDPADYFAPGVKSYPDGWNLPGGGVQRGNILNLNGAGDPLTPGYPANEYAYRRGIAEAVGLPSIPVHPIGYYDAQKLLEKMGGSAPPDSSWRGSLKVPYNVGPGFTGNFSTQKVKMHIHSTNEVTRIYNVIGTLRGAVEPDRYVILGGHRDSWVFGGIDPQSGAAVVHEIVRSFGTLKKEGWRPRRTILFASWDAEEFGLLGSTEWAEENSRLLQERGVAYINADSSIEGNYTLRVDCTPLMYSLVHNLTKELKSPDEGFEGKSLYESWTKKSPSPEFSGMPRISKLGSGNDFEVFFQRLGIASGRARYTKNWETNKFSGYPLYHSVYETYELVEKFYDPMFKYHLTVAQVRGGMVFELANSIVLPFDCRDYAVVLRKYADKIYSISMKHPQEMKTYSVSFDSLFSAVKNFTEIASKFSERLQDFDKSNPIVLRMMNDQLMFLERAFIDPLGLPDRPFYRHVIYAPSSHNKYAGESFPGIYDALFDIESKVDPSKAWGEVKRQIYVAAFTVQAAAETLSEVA
T1 sequence (P07766 23-207 limits assumed, form in doubt, chain 1 of 3): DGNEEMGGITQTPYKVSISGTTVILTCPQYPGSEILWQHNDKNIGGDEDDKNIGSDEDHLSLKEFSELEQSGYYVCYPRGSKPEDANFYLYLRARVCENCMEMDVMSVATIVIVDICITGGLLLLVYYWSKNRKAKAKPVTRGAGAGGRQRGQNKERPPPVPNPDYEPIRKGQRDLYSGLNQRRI
T1 sequence (P04234 22-171 limits assumed, form in doubt, chain 2 of 3): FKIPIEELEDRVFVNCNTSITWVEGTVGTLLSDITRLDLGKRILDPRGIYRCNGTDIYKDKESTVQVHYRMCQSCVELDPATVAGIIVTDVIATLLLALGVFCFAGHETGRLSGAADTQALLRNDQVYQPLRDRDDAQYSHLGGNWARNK
T1 sequence (P09693 23-182 limits assumed, form in doubt, chain 3 of 3): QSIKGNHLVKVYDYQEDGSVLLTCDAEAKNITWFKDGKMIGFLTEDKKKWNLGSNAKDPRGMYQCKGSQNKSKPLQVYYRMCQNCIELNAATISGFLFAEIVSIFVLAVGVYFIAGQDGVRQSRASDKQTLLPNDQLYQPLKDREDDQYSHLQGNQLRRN

B1: aCD3-aPSMA bispecific antibody (bispecific antibody)
chain 1: not shown
chain 2: EVQLVESGGGLVQPGGSLRLSCAASGFTFNTYAMNWVRQAPGKGLEWVARIRSKYNNYATYYADSVKDRFTISRDDSKNTLYLQMNSLRAEDTAVYYCVRHGNFGNSYVSWFAYWGQGTLVTVSS
notes: also called the bispecific antibody
EC50 [1]: 0.51 nM
EC50 [2]: 0.05 nM
LDH Killing EC50 (pM) [3]: 184 pM
